Measurements reported in PMC7289600, “Signaling diversity enabled by Rap1-regulated plasma membrane ERK with distinct temporal dynamics” (eLife, 2020).
Changes are numbered by the printed parent chain.

Target: T1, Rap1-binding domain (RBD) from RalGDS fused to the acceptor fluorophore Ypet (second chain of Rap1A/B-FLARE) (UniProt Q12967 798-885)
T1 construct: also called RalGDS RBD; source: PC12 cells, transfected (Lipofectamine 2000), in living cells
T1 sequence (looked up): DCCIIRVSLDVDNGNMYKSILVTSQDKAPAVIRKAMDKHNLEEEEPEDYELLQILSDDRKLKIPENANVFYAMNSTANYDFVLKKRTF
Test: FRET or BRET; dual-chain Rap1A/B-FLARE biosensors expressed in living PC12 cells; EGF added at time 0; yellow over cyan (Y/C) emission ratio imaging in HBSS at 37°C; increase abrogated by co-expression of Rap1GAP or by GGTI-298
Conditions: partners not purified

B1: Rap1A fused to the donor fluorophore mCerulean3 (Rap1A chain of the dual-chain biosensor Rap1A-FLARE) (natural protein, UniProt P62834 1-184, looked up)
chain: MREYKLVVLGSGGVGKSALTVQFVQGIFVEKYDPTIEDSYRKQVEVDCQQCMLEILDTAGTEQFTAMRDLYMKNGQGFALVYSITAQSTFNDLQDLREQILRVKDTEDVPMILVGNKCDLEDERVVGKEQGQNLARQWCNCAFLESSAKSKINVNEIFYDLVRQINRKTPVEKKKPKKKSCLLL
notes: Rap1A, GTPase of the Ras family; plasmid provided by Klaus Hahn; source: PC12 cells, transfected (Lipofectamine 2000), in living cells; not shown: mCerulean3, N-terminal, kept
- increase in Y/C emission ratio (FRET) after EGF: 25.4%

B2: Rap1B fused to the donor fluorophore mCerulean3 (Rap1B chain of the dual-chain biosensor Rap1B-FLARE) (natural protein, UniProt P61224 1-184, looked up)
chain: B1 chain with C48A, E107D, C139N, E172P, K173G, K175A, P176R, K179S, L182Q
notes: Rap1B, GTPase of the Ras family; plasmid provided by Klaus Hahn; source: PC12 cells, transfected (Lipofectamine 2000), in living cells; not shown: mCerulean3, N-terminal, kept
- increase in Y/C emission ratio (FRET) after EGF: 26%
